Laboratory results published in the domain aggregation screens of Martell et al. (2025).

Experiment: soluble fraction after stress (log2 fold change); higher = more stays soluble; pooled small domains, quantitative proteomics
Conditions: stress: pH 4
Summary of the method: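 Aggregation propensity is estimated from the fold change in each domain's soluble amount after acid stress. Pooled small-domain libraries were stressed at pH 4, and higher log2 values mean more stayed soluble.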

HMLETIDIFKVTGGEPFLSKDFLEILDLAIEKDLAKNITLMITTNASKFVKKILDKFIHFKRVEFTVS
soluble fraction (log2): -1.05

HMLFGKKYLGKVPNDASGRISLWNDIVKHHQELQNIRAIENFTSDNVTVAQGDTKKAVVVTDYVT
soluble fraction (log2): -0.152

HMLFQGDTPAENIILEILSKNGTTASDSIIKQSGLSVSDFNQAATMLEIKGLISNNGGNIWSL
soluble fraction (log2): -0.254

HMLFVKLSDAQRSMFGAKLARDARIQSEYAQKLPSENYEVFGKALADMLLDETHFKTFYPLLVEYGYTQPK
soluble fraction (log2): -0.649

HMLGDIYISIPRAKLQAEEYGHSFKRELAFLAVHGFYHLLGYDHQTKEEEEVMFGKQEEVLAEFDIKR
soluble fraction (log2): -0.245

HMLGKNEAKEYKVAYGDIGKMPALIMGLVPLPKPPVVDERLRTLYVTATPEQHREIEAIMNRI
soluble fraction (log2): -0.306

HMLGKSNAERQLDLILGAIERSITGVSRSKLMQAYHLDSRGATAAFETLEQRGLITRSKSGRTELLIPTRV
soluble fraction (log2): 0.126

HMLGWEDVIQFEEVKGYGQHIWRDGNHLYYVTEEGGIAPQRVVYELPNELFALLESGERTQLEILSKLQ
soluble fraction (log2): -2.35

HMLHNEFINDRIQSAINNLSEHFKIVIILRDIQELSYEEISNIVEVPLGTIKSRINRARIQLQAELLDL
soluble fraction (log2): 0.103

HMLILDTDGRYVIKRGDSLSEILEKIANGSNINLNLLKRAFVTANPKAFKRANPNWMYANAR
soluble fraction (log2): -0.145

HMLIPTISVTKEGQLRFENIPVSWEELGTRLRDVSDLDKIKIYADAESDALTISEIMKTAANVGIVQFVLV
soluble fraction (log2): -1.13

HMLIRKGVVSFFNDAKGYGFIKDLVTQESAFVHVNSLSETIKEHDKVTFEVEMGHKGANAVNVKLVK
soluble fraction (log2): -0.72

HMLIVLKPNVSQEEIDHIVDKIRSLSLEPHVSTGVQRTIITVIGDEDVIREQPLEALAGVESVKSILKP
soluble fraction (log2): -0.144

HMLKGTVKWFNESKGFGFIEQEEGKDVFVHYSAITGSGFKTLNEGDKVQFEIVDGPKGPAAANVSK
soluble fraction (log2): -0.927

HMLKKGDQVYIISGKDKGKLGVVSQIVSEERILVDGINLAKKHVKPNPNKNETGGVVEKEMPIHASNVMI
soluble fraction (log2): -0.702

HMLKLTDRQKVILSILMSDGEKTASWIASQLGVGLRSVQLDLSYLRNNGFIKKASKSTHSAWIVLKK
soluble fraction (log2): 0.205

HMLKPIHKDWSPNGDAKEILLKAGITEEFIQKELPEFIMYWSERNEESDIWNSKFIAHIRRRWGRFS
soluble fraction (log2): -1.23

HMLKPVVLLGARGLTDAVEKEVERALDEHGLIKIHVPSDDREERDEIYTTLADKLNAARIQAIGKMLVLW
soluble fraction (log2): -0.00783

HMLKSGSAVAQARDVILEKGVPVHINEILDALGKGDTREAKASLTSSLAAYVRRGEIFTRPAPNTFGLVEL
soluble fraction (log2): -0.378

HMLKTADAIASVLLTRIQAGEFSAGRLPAERALSEAFSTTRITLREALGKLEAQGMIYRELRRGWFIA
soluble fraction (log2): -1.3

HMLLFNPGEVLKGFVLQSGTNNRVLLQIGDSRVIADTQTPLKAGEQLVLRVEETGPKTILQILG
soluble fraction (log2): 0.0206

HMLLGDYIQKLRNQRGLSQQEFADKLGIGRSTLANYEQNKRSPDYETLIEISKFFNVSIDELLGV
soluble fraction (log2): -0.342

HMLLLASTPAEQTIIQLLAEGWRDGDQLQQRSHLSAADFSTALTMLEVNGSIKPLGANHWALTH
soluble fraction (log2): -0.185

HMLLPANLTKSQRNIAERVARGQSNLEIAADLNITERTVKAHLTSIYEKTKTGNRLNLALLINLG
soluble fraction (log2): -0.17

HMLLPGEELRVMIIQEGKEYGQGVGYLDDGTMVVVEDGQRALNRTENVVVTKVLQTTAGRMIFAK
soluble fraction (log2): -0.975

HMLLQENRKLHSKLEELQLISRAKAVLIEYLKLTEPQAHRYIEKQAMDLGLTRPQVALNILKTYE
soluble fraction (log2): 0.21

HMLLQTAVISTDIVNMRAEPTTNSSVIRKLTKGSDITINQEKDGWYKISDDQGNSGWIVTWAAKPT
soluble fraction (log2): -0.0639

HMLMDVRVPDIIGVEINQAKEILTASSLLIGKITYVSLPEIEKDLVIETSVLAGRRVSAGTVIDITVNKE
soluble fraction (log2): -0.87

HMLMKPQKTRDVLRYLKSIGWVRLRGGQGSHEIWGLPDGSIRAVIPAGHREISAGVLMQLKRAGVDVPTQW
soluble fraction (log2): -0.0803

HMLMLTPGQIAQTLDVSTATVRRWSARYARHLSPNTPGKKRSYTVDDLAVLTRVRDLSATGTPLAQIDQAL
soluble fraction (log2): 0.151

HMLMLTPGQVSNSLNVSTATVRRWSARFARHLSPQPPNRKRSYTPDDLATLARVRDLSASGTSLAQIDIAL
soluble fraction (log2): -0.29

HMLMRSPDFLIGWFQNLVAKRETFNDQVQAKNLIEAGKQHIQGEDFDRLLEVNRRLFSLLPQREQE
soluble fraction (log2): -1.27

HMLNAPFGFRIEDDTLIPIPEEAKVVRQIFRYYLQGMGFGKIAQELNGQDVPGKPWGKERIKYILSNEKYI
soluble fraction (log2): -0.0934

HMLNERQKKIIKILKDNKNWMTGKELSEFLNVSDRTIRSDIEYINRYNNALIESNVKNGYHLNFE
soluble fraction (log2): -0.0338

HMLNIVTIFEEQFGRPLSPIELNIIKDWKESDYSDEMIVKALKEAVKSQVLNFRYVEGILNNWAKNG
soluble fraction (log2): -1.08

HMLNLNEAEKSIYVLIKKNESNNLNKVKEDSNLSNKAWDKGIKNLVKNNLVKVVKSNEGLFIQLV
soluble fraction (log2): 0.196

HMLNLNILTDKEKFIAKLISRGLSDSLIAKELYISISTVRSHVNSIYGKTNIKNRSHLASSFLYFELGNLL
soluble fraction (log2): -0.0771

HMLNPMILLTKGGENIRLDKFLSSHLSDLSRTQIQKMVKEGLVLVNGEPSKVGLKLDGSETIQYTLPK
soluble fraction (log2): 0.254

HMLNSISIKTNKKIDFLEKNEHLVNFVYEKETMEHIYNLSYENKKDLQELQNKLSDIEGIIKINTDL
soluble fraction (log2): -2.18

HMLPDVSITGHIFIRSGSRLNRIFVGESTYHVGDMLDGKWLIESINSDSLELRSGTQTTELPL
soluble fraction (log2): -0.066

HMLPDYLIELKKKADSGDAVSQNDIGNIYLYGLPRVNIYPDEKNIGIGIDYLYKAAWQDQVNAMTTI
soluble fraction (log2): -0.397

HMLPELQPGQTFSARIQQALPDNTYRALVAGKQLTLQLPEGAKAGDELELVVLDRSARVIIARQVD
soluble fraction (log2): 0.336

HMLPGERFKVKIAQAGKEKKQGIGYLNDGTMVVIENGIEKVGEEVEAVVIKVIQSSAGKIIFSEVAK
soluble fraction (log2): 0.0394

HMLPGKEIPLPEFLREAFARNEPALENFQNLAPSYRRQYILWITSAKTPETVQKRISESIGLLKENRKLGM
soluble fraction (log2): -0.0786

HMLPGLGPIERAQFMLQAIPGISPTRSAALIDKFGSIAGIAQASIKDIQTIEGIGKKTATTLYEVLNAG
soluble fraction (log2): -0.223

HMLPISGDDRDALDMAALILKQYDSLPILKEFANVVTKLQTVLDGVVSNSIEARRQMIQFEE
soluble fraction (log2): -0.48

HMLPITPGQKYKFVVKSAEEAAAIIRDKLGEMAQVISVRQVEGEGLARFLKSPKLEIIAQVPVA
soluble fraction (log2): -0.349

HMLPLGSNEYETAVIKHLASGVQDADEIQRLTGIDQTSLNTALTMLELAGTIRPLGNNHWTL
soluble fraction (log2): 0.22

HMLPLHFIEIVSLKKIDTLTKRKELINYAFSKNEKTYIYKLAFKKKSELDNLYKEINLFNEIINIDIRHS
soluble fraction (log2): -0.943

HMLPLPRFASLDSSEANLRAGPGKDYPILWVYQRKGLPVEIIQEFDTWRRIRDRDGTVGWVQQNLL
soluble fraction (log2): -0.568

HMLPNIKSEMEILGDNAKARLEAAELWSKKYLSNEAYDTMSKLATTADGVKAIEEIMNITKS
soluble fraction (log2): -0.274

HMLPSELLAQQRIVVQPGHNLWRIARATYGRGARYTVIYQANREQIADPNRIFPGQVFALPAA
soluble fraction (log2): -0.227

HMLPSMENWLGELSFWQTPWWERRDFSTFDNIAQSKEELDEFMSRDDNGAILERMQDPINTIEAE
soluble fraction (log2): -0.682

HMLQGKVSFFNDEKGYGFIKDNNSKDSYFVHINKVEGEIAEGDKVTFELEKGPKGLVAANVKR
soluble fraction (log2): -0.145

HMLQIGDEEFIENIVKQVIDENQKAVDDYKKGKEKVMAFLIGQVMKKTKGKVNSEIVEKTIKKL
soluble fraction (log2): -0.565
